The DeepSol protein solubility set

Experiment: soluble on expression in E. coli; label from the status in PepcDB or PDB records
For “MAHHHHHHMNGELNIGAGRVIFYRTIAKQNRNTLPLWTLQRHLYAYHPYVWFAIASASNAEAMEKLAERLGMKLVQDATTSYKISIRRSSELLDGELNAQLQCTKMNRPWDRFLITHYVRSQMPDLRFLVRARHPIKKRVTDAYLEADILRSTRDSVQSVLSPELGEVCYCCERVIRKWAMRTQTGVTLQLVETRRTPLIITKAGDEGERLEYEWIVVLPQKAERIDIAALSAELWDYGNVLARELEPGMEEFLSHTMTAAASY”, the “soluble on expression in E. coli” value was “not soluble”.
With “MAHHHHHHMNGTRRFSAAPVNFDRFIALAHSYSRSLSPDRELDQMLRPFQGRAAASTSTATRESTASRVATPQRRHQQMRNGELIDKGSVSTEAEVGKPYWGTTESVAMTRSTTASNTVFSTRAATSTSRTVSGGAAETTSAVSTRSSYLVHSSCPVGEETQELGSGSYSADEVDPLLQAAMQLGSPLYDPVKRQFVCWQLHALEKRPRAAYGDVEGVSCDFCGHTDWLEGVPERATSSPSASATVANADEGKMDTHAPSAAASFTAHARFFYNCSACQVDVCQACLEEVRSDERLHVPCFQCQRCGGYETRQNAPLHRCAEVTRISDDEGSTGVQALLTSPRSNVDASQALPAAPATSSPKYRGVPVGRPVRLGLCRRFQQAVEAVAAPDTEIAAHAGKIANSTPHRKRKRASPEAALVPKQRSGKTTNDTAEVFRVSDVSDKSCRKVRRASASALPKPAPPKQEADDADGDASRALVEAALLPFARYEVHLTPRTAEEVGEVGRIAREQHLVCSPLPSLAKTCVFYFTTRLAAETCVDRATAASLDAILKQSVTPVCRT” the “soluble on expression in E. coli” value was “not soluble”.
In the case of “MAHHHHHHMNIKRSIYHYLSYSSFLIKNHYHHNNTIYPCFHSLRNNNKMSYFRPNYFICIPIKNDNICNELINIQKHVLVKYDELKDCIIERNKFHISLLILHIKKNQIELSKEAFNEAMEKIKKNMHNEKICFEKLDTFRNDVLYLSLKEDSNKYIINIINHLIDSFSKRGIKIIFNNKKPAKEILSNNNKKELNKNSNDLQHITPHLTLMKNSYMKKMYMNKKPQILPFFYTDYDLTNLLKEQIDIQKIQFLEMDMDTSTSYYKIVSEFNL”, the “soluble on expression in E. coli” value is reported as “not soluble”.
In the case of “MAHHHHHHMNLRSLVPSDKQLTEEQQSHIQDLQDEIDEIWSRRGDYKIDDKAWEHMPLFMETITEEDMQKNADCAALASIAYDEVPPEDIAESRKQHGNRAIQLALNPEQVNKENLARAAAHCYTEGLNAKCKDPILNSQLYANRSLAQYIIQNYGHGLEDAQRAIILNPDYSKAYYRAARCAERVKKYDLAIDLLSKGRCTNPPPEGIALEEFEELERVCREGMKKFQKKEKEDSIRTRVRAAETSSLMRALTSYGIRLSPTPEVSSEQMGVYGQHQPYFDAVGLLHVPILFMYDEYQQTDFMQDVTCDVSTAELLDEIMPFPWDDRGRYRHMNEVVVFFKIDDGVKMAEYYEVDLSWPLMEVFRSESYKMPMLLPVLHVVCRSSELLQHWKPQKPR”, the “soluble on expression in E. coli” value is reported as “not soluble”.
With “MAHHHHHHMPEPLEETFSRVLSAKVARAKRVFGGDINETYRLEMEKDDVVYFLKLQRGTTADFYAAESLGLSLLSDVARTPRVVQTGEVNGDAYLIMTWIQSFPSAMRGGVRRNMAELGRMVAIVHRQTSPNGQFGSSVAVPLAGCKTSAGWSKDWATYYIESLLAPQVALARRKGYWSDRREAMFVAFSKRFCAFYASKKNVQPSLLHGDLWGGNVMYGESGEPYLIDPSSYYGHREVDIAMTRLFGGFGSEFYTAYEGEMPLEAGHASRVPWYQLLPLLCHLNLFGEAYGSSVDSAMAHVL” the “soluble on expression in E. coli” value was “not soluble”.
In the case of “MAHHHHHHMPFVDHNKYKIQREDLPALPHFTDFNDPRFCGTNNKQKNGILAYYQWLHCVGNWGEEHSMCKKMRWYVERMMQEVWLEKWEEKRALGHFDHVLLYGVKPWKDFEPLYQPVKTNRKGAYEFWLDRDFEPLYDADASDFCEKAPILHDIFVKGKKPVYDE”, the “soluble on expression in E. coli” value is reported as “not soluble”.
In the case of “MAHHHHHHMPVKRSNKVHKFHEGTGDDNMPVVSMFVVKDGDEPFTRIDVELFVNKVPKACDLFLQTCAFPTVGDKRNAKRGSYKGCRFVRLTKEALQVADGSGPRAVPLSELEAEIGRVNHGVGIASLCRSSTSFDESFFFCLTDNRLELDSLDKRHVAFGRVTGGLDALMGLRDALVPYVQEGCVIVGSPYAVSEVVPKAKQ”, the “soluble on expression in E. coli” value is reported as “soluble”.
With “MAHHHHHHMPYNALVSSHLAELTLCKLAELMVPNDFNLFVLAIKDDLLSKALEDHSLFVFLSAAFVNAIIPKLKELKLEEDKDDSPHLCALRVRPHERPFKPRLLECLKDFKGKINAECRVLYKPEAKNFPLVDGFFFVESKPKIMVGLQMTTASEHHTIPSTVNLFKENMAKYFNGWEKFSRDMLWEIIYIQHADSTPLDGWQRCDYVNPRNKTDAENEIVAFWNGKVHQYQFVLTTEFVSKIREMKM” the “soluble on expression in E. coli” value was “not soluble”.
